The values below come from article PMC11838356 (bioRxiv, 2025).

This data set deals with the molecule itself. The data set can be described thus: cryo-EM structure.

B1: ArnC from Salmonella enterica (ArnCSe) (enzyme, UniProt O52324 1-327, looked up)
chain: MFDAAPIKKVSVVIPVYNEQESLPELIRRTTTACESLGKAWEILLIDDGSSDSSAELMVKASQEADSHIISILLNRNYGQHAAIMAGFSHVSGDLIITLDADLQNPPEEIPRLVAKADEGFDVVGTVRQNRQDSLFRKSASKIINLLIQRTTGKAMGDYGCMLRAYRRPIIDTMLRCHERSTFIPILANIFARRATEIPVHHAEREFGDSKYSFMRLINLMYDLVTCLTTTPLRLLSLLGSVIAIGGFSLSVLLIVLRLALGPQWAAEGVFMLFAVLFTFIGAQFIGMGLLGEYIGRIYNDVRARPRYFVQQVIYPESTPFTEESHQ
As usually defined, the stoichiometry N is a count of units in the complex or per binding partner. With B1, the “stoichiometry N” value is 4.
